The record followed here is patent US9365899.

The experiment has as its target yeast Fab1/PIKfyve kinase (yeast) (UniProt P34756). Description: cell-based or functional assay.
UniProt P34756, sequence (P34756 2-2278 limits assumed): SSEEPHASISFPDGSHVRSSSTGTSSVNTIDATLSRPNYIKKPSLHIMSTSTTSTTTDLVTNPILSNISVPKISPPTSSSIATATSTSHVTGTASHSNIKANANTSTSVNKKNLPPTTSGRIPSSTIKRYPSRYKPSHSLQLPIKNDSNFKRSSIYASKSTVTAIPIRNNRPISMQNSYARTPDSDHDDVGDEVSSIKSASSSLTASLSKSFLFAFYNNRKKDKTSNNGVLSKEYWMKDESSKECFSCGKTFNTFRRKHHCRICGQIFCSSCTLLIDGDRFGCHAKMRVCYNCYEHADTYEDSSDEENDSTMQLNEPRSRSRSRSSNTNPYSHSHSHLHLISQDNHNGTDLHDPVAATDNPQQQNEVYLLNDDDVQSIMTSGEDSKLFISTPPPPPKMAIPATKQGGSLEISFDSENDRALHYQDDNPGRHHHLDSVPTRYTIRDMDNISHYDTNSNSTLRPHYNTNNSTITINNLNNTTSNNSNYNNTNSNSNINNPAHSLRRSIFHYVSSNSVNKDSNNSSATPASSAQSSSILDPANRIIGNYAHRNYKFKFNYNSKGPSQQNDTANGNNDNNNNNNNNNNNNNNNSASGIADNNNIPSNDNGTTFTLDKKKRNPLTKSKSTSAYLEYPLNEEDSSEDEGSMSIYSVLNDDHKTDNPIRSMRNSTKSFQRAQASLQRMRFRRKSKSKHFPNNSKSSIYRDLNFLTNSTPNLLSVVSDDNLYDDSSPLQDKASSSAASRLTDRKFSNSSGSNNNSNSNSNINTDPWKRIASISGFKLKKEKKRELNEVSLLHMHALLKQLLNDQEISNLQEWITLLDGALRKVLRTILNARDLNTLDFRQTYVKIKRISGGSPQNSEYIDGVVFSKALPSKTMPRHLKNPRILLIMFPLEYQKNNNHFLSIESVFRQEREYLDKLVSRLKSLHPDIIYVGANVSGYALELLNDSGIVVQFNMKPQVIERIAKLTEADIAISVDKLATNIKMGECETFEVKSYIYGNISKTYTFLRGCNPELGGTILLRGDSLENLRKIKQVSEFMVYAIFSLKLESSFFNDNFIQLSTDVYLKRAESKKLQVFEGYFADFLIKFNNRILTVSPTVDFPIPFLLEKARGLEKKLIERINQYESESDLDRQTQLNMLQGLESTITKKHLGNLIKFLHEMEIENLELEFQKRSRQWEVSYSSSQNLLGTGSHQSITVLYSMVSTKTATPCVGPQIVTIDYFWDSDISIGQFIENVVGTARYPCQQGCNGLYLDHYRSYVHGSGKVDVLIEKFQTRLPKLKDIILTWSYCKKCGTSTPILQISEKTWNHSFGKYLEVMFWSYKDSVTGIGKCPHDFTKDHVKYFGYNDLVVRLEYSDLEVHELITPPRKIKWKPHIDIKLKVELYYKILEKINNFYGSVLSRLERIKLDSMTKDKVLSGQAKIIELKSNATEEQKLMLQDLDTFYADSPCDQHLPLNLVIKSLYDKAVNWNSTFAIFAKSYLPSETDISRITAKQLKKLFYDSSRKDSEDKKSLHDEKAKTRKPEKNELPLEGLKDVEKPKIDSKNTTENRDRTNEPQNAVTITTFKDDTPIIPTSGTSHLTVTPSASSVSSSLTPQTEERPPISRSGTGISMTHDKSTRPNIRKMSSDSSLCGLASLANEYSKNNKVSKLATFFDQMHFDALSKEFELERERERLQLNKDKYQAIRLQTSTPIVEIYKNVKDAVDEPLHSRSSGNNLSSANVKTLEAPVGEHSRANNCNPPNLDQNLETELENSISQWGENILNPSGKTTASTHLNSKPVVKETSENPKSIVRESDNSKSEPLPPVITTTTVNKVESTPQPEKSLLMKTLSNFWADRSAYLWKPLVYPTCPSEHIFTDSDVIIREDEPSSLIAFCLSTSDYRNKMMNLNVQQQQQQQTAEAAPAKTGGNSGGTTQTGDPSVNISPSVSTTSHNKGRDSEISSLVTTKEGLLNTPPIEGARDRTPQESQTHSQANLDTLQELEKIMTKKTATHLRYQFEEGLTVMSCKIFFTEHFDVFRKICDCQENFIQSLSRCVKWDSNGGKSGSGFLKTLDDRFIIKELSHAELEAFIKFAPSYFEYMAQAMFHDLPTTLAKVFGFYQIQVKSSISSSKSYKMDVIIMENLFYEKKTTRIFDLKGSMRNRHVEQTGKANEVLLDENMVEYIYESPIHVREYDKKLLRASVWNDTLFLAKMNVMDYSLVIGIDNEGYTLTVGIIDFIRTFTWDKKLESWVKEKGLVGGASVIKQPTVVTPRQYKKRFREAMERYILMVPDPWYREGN

Regarding “yeast FIG4 protein with the Ile>Thr mutation corresponding to human I41T (from UniProt P42837 1-879) (enzyme)”, the increase in intracellular PI(3,5)P2 concentration after hyperosmotic shock is 4 fold.
The substance “yeast FIG4 protein, wildtype (from UniProt P42837 1-879)” returned an increase in intracellular PI(3,5)P2 concentration after hyperosmotic shock of 10 fold.
